Measured values reported in patent publication US20220229068A1, “DETECTION OF PROTEIN TO PROTEIN INTERACTIONS” (THE GOVERNING COUNCIL OF THE UNIVERSITY OF TORONTO, priority 2019, published 2022).

How the values were obtained:
[1] = target: CYB-1 (C. elegans prey, CIC format) (C. elegans) (UniProt Q10653); test: SIMPL ELISA, C. elegans lysate, IN/CIC; ratio of spliced signal to total signal
[2] = target: RAN (prey, CIC format) (human) (UniProt P62826); test: SIMPL ELISA, bait-IN/prey-CIC
[3] = target: PTPN11 (prey, CIC format) (human) (UniProt Q06124); test: SIMPL ELISA, bait-IN/prey-CIC
[4] = target: F44B9.8 (C. elegans prey, IC format) (C. elegans) (UniProt P34429); test: SIMPL ELISA, C. elegans lysate, IN/IC; ratio of spliced signal to total signal
[5] = target: T1, SOC-2 (C. elegans prey, CIC format) (C. elegans) (UniProt Q22875); test: SIMPL ELISA, C. elegans lysate, IN/CIC; ratio of spliced signal to total signal
T1 sequence (looked up): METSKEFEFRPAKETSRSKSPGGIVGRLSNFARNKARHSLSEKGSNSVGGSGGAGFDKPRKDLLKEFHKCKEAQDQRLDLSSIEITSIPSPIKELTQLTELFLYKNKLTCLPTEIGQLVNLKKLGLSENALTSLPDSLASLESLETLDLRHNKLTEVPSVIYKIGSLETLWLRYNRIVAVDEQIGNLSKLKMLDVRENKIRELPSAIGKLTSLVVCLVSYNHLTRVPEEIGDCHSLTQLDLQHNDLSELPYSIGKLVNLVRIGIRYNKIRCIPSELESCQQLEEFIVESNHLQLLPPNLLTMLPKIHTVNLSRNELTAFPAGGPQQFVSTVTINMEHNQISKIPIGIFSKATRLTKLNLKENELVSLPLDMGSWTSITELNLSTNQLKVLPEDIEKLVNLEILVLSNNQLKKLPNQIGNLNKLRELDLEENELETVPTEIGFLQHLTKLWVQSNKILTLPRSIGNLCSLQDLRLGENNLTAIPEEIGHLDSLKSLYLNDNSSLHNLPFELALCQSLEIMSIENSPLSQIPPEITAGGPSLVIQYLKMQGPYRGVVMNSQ

[6] = target: T2, SOC-2 (C. elegans prey, IC format) (C. elegans) (UniProt Q22875); test: SIMPL ELISA, C. elegans lysate, IN/IC; ratio of spliced signal to total signal
T2 sequence (looked up): T1 sequence (looked up)

[7] = target: ZBTB16 (prey, CIC format) (human) (UniProt Q05516); test: SIMPL ELISA, bait-IN/prey-CIC
[8] = target: ARHGAP1 (prey, CIC format) (human) (UniProt Q07960); test: SIMPL ELISA, bait-IN/prey-CIC
[9] = target: CCNA1 (prey, CIC format) (human) (UniProt P78396); test: SIMPL ELISA, bait-IN/prey-CIC
[10] = target: T3, ARFIP2 (prey, CIC format) (human) (UniProt P53365); test: SIMPL ELISA, bait-IN/prey-CIC
T3 sequence (looked up): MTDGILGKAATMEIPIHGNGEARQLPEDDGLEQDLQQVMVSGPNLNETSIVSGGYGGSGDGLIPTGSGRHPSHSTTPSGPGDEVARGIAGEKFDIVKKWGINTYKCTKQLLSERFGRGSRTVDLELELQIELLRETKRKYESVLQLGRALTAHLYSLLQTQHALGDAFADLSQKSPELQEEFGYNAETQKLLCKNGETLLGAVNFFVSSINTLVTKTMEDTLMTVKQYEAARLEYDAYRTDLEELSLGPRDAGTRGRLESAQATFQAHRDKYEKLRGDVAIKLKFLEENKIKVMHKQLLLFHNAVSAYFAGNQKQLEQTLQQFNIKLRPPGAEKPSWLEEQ

[11] = target: CASP9 (prey, CIC format) (human) (UniProt P55211); test: SIMPL ELISA, bait-IN/prey-CIC
[12] = target: NPP-1 (C. elegans prey, IC format) (C. elegans); test: SIMPL ELISA, C. elegans lysate, IN/IC; ratio of spliced signal to total signal
[13] = target: HSP90AA1 (prey, CIC format) (human) (UniProt P07900); test: SIMPL ELISA, bait-IN/prey-CIC
[14] = target: RELA (prey, CIC format) (human) (UniProt Q04206); test: SIMPL ELISA, bait-IN/prey-CIC
[15] = target: RAD23A (prey, CIC format) (human) (UniProt P54725); test: SIMPL ELISA, bait-IN/prey-CIC
[16] = target: T4, PEX3 (prey, CIC format) (human) (UniProt P56589); test: SIMPL ELISA, bait-IN/prey-CIC
T4 sequence (looked up): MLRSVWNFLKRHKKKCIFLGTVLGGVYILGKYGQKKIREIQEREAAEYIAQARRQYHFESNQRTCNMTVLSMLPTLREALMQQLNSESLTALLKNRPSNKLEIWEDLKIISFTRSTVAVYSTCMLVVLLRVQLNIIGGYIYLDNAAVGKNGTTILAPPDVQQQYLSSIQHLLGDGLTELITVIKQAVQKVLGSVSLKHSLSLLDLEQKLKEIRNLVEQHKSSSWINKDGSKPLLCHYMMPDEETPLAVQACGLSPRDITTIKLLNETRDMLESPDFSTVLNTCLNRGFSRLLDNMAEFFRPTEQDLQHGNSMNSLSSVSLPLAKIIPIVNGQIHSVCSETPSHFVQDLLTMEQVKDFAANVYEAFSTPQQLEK

[17] = target: LMNB1 (prey, CIC format) (human) (UniProt P20700); test: SIMPL ELISA, bait-IN/prey-CIC
[18] = target: T5, RB1 (prey, CIC format) (human) (UniProt P06400); test: SIMPL ELISA, bait-IN/prey-CIC
T5 sequence (looked up): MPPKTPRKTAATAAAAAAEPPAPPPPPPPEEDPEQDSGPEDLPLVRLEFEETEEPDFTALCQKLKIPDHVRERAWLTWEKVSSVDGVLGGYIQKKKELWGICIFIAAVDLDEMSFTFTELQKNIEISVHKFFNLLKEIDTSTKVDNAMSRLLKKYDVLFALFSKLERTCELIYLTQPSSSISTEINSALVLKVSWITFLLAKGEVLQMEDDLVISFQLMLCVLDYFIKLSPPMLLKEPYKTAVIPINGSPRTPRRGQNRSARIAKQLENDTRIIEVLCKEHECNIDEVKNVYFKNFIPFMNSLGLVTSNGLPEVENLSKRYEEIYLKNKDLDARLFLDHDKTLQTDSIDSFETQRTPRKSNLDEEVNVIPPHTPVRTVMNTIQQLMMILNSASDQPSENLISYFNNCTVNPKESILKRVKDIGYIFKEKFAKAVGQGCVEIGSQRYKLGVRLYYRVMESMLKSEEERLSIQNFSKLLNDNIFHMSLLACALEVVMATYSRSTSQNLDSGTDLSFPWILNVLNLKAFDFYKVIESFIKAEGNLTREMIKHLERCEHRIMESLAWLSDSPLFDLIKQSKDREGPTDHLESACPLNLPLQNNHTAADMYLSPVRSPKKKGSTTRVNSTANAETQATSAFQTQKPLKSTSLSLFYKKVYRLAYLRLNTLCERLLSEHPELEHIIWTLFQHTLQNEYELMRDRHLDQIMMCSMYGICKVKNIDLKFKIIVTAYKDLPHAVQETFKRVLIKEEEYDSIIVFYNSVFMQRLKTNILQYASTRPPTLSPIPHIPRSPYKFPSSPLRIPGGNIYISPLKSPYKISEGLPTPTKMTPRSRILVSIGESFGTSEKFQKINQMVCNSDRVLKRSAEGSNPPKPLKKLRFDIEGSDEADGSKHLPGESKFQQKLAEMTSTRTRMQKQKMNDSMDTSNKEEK

[19] = target: T6, FRS2 (prey, CIC format) (human) (UniProt Q8WU20); test: SIMPL ELISA, bait-IN/prey-CIC
T6 sequence (looked up): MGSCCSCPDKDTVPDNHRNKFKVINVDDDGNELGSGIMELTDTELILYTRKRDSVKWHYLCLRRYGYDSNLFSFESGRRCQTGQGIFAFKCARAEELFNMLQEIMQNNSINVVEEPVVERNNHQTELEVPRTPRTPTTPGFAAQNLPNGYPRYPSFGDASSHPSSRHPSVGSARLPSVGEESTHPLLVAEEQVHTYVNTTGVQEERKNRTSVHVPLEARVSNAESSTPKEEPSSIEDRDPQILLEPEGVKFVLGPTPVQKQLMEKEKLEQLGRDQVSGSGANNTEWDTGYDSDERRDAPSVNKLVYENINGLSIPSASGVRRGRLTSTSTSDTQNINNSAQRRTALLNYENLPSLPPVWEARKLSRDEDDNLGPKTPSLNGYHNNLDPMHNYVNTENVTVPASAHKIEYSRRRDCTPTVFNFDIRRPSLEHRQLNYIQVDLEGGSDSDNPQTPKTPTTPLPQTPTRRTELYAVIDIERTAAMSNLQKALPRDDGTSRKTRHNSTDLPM

[20] = target: T7, NCBP2 (prey, CIC format) (human) (UniProt P52298); test: SIMPL ELISA, bait-IN/prey-CIC
T7 sequence (looked up): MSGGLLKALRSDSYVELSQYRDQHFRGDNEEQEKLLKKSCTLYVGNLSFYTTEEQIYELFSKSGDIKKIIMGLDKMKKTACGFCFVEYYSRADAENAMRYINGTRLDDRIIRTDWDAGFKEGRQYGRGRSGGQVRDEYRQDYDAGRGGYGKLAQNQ

[21] = target: EZR (prey, CIC format) (human) (UniProt P15311); test: SIMPL ELISA, bait-IN/prey-CIC
[22] = target: RACK1 (prey, CIC format) (human) (UniProt P63244); test: SIMPL ELISA, bait-IN/prey-CIC
[23] = target: T8, PDPK1 (prey, CIC format) (human) (UniProt O15530); test: SIMPL ELISA, bait-IN/prey-CIC
T8 sequence (looked up): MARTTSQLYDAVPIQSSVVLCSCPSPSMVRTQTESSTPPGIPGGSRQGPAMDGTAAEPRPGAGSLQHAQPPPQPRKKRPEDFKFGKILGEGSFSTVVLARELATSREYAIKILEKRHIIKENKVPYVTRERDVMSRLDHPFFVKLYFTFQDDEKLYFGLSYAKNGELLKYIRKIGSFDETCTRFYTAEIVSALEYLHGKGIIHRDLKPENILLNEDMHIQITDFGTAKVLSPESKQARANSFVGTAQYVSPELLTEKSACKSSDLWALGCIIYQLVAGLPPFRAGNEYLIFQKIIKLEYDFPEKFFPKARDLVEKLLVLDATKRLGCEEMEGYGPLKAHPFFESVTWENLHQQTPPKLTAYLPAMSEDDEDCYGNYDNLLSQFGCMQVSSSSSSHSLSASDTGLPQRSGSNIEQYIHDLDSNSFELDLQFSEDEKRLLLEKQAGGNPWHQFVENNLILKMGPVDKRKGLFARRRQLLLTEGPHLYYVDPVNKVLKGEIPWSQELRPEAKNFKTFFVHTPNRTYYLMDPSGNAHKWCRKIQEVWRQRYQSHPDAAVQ

[24] = target: T9, PEX19 (prey, CIC format) (human) (UniProt P40855); test: SIMPL ELISA, bait-IN/prey-CIC
T9 sequence (looked up): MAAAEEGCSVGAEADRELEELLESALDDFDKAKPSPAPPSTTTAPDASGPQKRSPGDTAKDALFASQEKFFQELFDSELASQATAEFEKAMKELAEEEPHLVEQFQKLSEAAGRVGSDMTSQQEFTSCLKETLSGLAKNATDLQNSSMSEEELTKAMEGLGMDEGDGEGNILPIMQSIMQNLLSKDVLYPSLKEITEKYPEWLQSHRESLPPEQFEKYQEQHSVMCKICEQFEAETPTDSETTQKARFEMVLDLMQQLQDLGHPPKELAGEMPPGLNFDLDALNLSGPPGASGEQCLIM

[25] = target: TCL1A (prey, CIC format) (human) (UniProt P56279); test: SIMPL ELISA, bait-IN/prey-CIC

With “CDK-1 (C. elegans bait, IN-V5/HA) (from UniProt P34556 1-332) (enzyme)” the ELISA Value Replicate 1 [1] was 1.1 and the ELISA Value Replicate 2 [1] was 0.8.

For “PDGFRB (bait, IN format) (from UniProt P09619 33-1106) (receptor)”, the PLU mean [2] was 0.143 and the PLU mean [3] was 0.539.

In the case of RFC-2 (C. elegans bait, IN-V5/HA), the ELISA Value Replicate 1 [4] is reported as 0.66 and the ELISA Value Replicate 2 [4] is reported as 0.88.

Work on “LET-60 (C. elegans bait, IN-V5/HA) (from UniProt P22981 1-184)” yielded an ELISA Value Replicate 1 [5] of 0.79, an ELISA Value Replicate 2 [5] of 0.7 and an ELISA Value Replicate 1 [6] of 1.2. It also gave an ELISA Value Replicate 2 [6] of 0.59.

Work on “RHOA (bait, IN format) (from UniProt P61586 1-193)” yielded a PLU mean [7] of 0.691, a PLU mean [8] of 0.486 and a PLU mean [9] of 0.36.

For “XIAP (bait, IN format) (from UniProt P98170 1-497)”, the PLU mean [10] was 0.439 and the PLU mean [11] was 0.811.

NPP-11 (C. elegans bait, IN-V5/HA) showed an ELISA Value Replicate 1 [12] of 1.8 and an ELISA Value Replicate 2 [12] of 0.92.

Substance “NR3C1 (bait, IN format) (from UniProt P04150 1-777) (receptor)” has a PLU mean [13] of 0.652, a PLU mean [14] of 0.63 and a PLU mean [15] of 0.183.

Work on “LMNA (bait, IN format) (from UniProt P02545 1-664)” yielded a PLU mean [16] of 0.224, a PLU mean [17] of 0.861 and a PLU mean [18] of 1.18.

Work on “RET (bait, IN format) (from UniProt P07949 29-1114) (receptor)” yielded a PLU mean [19] of 0.608 and a PLU mean [20] of 1.06.

“PDE4D (bait, IN format) (from UniProt Q08499 1-809) (enzyme)” was tested, and the PLU mean [21] was 0.137 and the PLU mean [22] was 0.639.

“AKT1 (bait, IN format) (from UniProt P31749 1-480) (enzyme)” was tested, and the PLU mean [23] was 0.486, the PLU mean [24] was 0.218 and the PLU mean [25] was 0.111.
